We go through seven sequences from the DeepSol protein solubility set.

This series is described as follows: soluble on expression in E. coli; label from the status in PepcDB or PDB records.
Take “GSPELGFSFDYAYQPIVNLHDQSIFAHEALVRGPNGEGAMSVLNQVTDQNRYRFDQKCRTTAIAGAAKLGMTERLSINFLPNAVYRPELCIRSTLEAAKQHDFPIERLIFETIESEHVDNNNHLSNILREYREFGFMTAIDDFGAGYSGLTLLADFQPDLIKLDMNLVRDIHRDRARQAIVRGVVTMCKDLGIKLIAEGIEHIEERDFLADCGISLMQGYLFAKP”: the “soluble on expression in E. coli” value was “not soluble”. Turning to “MGSDKIHHHHHHMTENSRKTATELFEFLDGLGISHTTKQHEPVFTVAESQSLRDLIPGGHTKNLFVKDKKDQYFVLTVEENAVVDLKSVHKTIGAASRVSFGRPEKMLEYLGVVPGSVTVFGAINDTARQVTFVLDSDLLENELVNGHPLSNDQTTTIASKDLIRFLEATGHAPLVLKVSE”, the “soluble on expression in E. coli” value is on record as “soluble”. The entry for “MSARVRPFLMFQGVQAEAAMNFYLSLFDDAEILQIQRYGAEGPGPEGSVLKALFRLGDQSVHCIDSHVRHAFDFTPAFSFFVDCESNAQIERLAEALSDGGKALMPLGDYGFSQRFAWLADRFGVSWQLNLA” is “soluble”; for “MLVRRLFQPSTLHWAWRTTALNHPLGRHQGGLRWTHSGGRSYRAVIFDTGGVLVPSPGTVAVGWEVQNHVPSGTIVKAFIRGGDSGPWIRFIKGEITTEHFLEEFGRLCSEIAKTSVPVSSYFSLLTSEQVTKQFPVMTQAISQIRAKGLQTAVLTNNFHLSSGESFLPLDRKQFDVVVESCLEGICKPDPRIFQLCLQRLSLQPSEAIFLDDLGSNLKVAASLGIHTIKVDRPETAVKELEALLGFPLHLGVPNTRPVRKTMAIPQDALEKYLKGLLGTHSTGPMELLQFDHGQSNPTYYIRLADRQLVLRKKPSGTLLPSAHAIEREFRIMKALANAGVPVPTVLDLCEDSSIIGTPFYLMEYCPGIIYKDPSLPGLEPSRREAIYTAMNQVLCRIHSVDLQATSLDSFGKQGDYIPRQVQTWTKQYRAAETSSIPAMERLIQWLPLHLPRQQRTTLVHGDFRLDNLIFHPEKAEVLAVLDWELSTLGDPFADVAYSCLAYYLPSSFPILRGFRDQDVTKLGIPTVEEYFRMYCLNMGIPPIDNWNFYMAFSFFRVAAILQGVYKRSLTGQASSATAQQSGKLTESMAELAWDFATKEGFRVFKEMPATKTLSRSYHAWAGPRSPRTPKGVRGHSTVAAASPSHEAKGGLVISPEGLSPAVRKLYEQLVQFIEQKVYPLEPELQRHQASADRWSPSPLIEDLKEKAKAEGLWNLFLPLETDPEKKYGAGLTNVEYAHLCEVMGMSLYASEIFNCSAPDTGNMEILVRYGTEEQKARWLVPLLEGRIRSCFAMTEPQVASSDASNIEASIKEEDGCYVINGHKWWTSGILDPRCKLCVFMGKTDPQAPRHQQQSMLLVPMDSPGITVIRPLSVFGLEDPPGGHGEVRFKDVRVPKENILLGPGRGFEIAQGRLGPGRIHHCMRLIGYSERALALMKTRVMSRTAFGKPLVEQGTILADIARSRVEIEQARLLVLKAAHLMDVAGNKTAALDIAMIKMVVPSMAYHVIDRAIQAFGAAGLSSDYPLAQFFGWARALRFADGPDEVHQLTVAKMELKNQSRMQEPAVPRV” it is “soluble”. The same measure for “MSLLGTGYLPDGTHMPGANPNLNIAAFLKENHIDLHTTVYPGGGLDPYTSVEFLNIVSKHCKTVFSNANEVLNTIPNSIYVPGIINTEFYHYNQKVSTKPIQMIFAAHNAERKGFPLLAQAFNKLDDQFHLHIVGNWENSLHLLTNNNYTFWGMLDLEKLKQLYEQSHVFISCSTKDKFAIDGFPTTAAADAMATGCILVSTNHRNDNRILKPGEDYLKIEADSNSILSNLFWIKMNFEKALEIGKSGAIKMDKYFNYKTNVNFKLSHIF”: “not soluble”. As to “MLPVTYRLIPQSGVSTYRLNTADTPVFPDIPEHAPNPSRLRLAHDSLAINSEFRLEPECVVEYLISGAGGIDPDTEIDDDTYDECYDELSSVLQNAYTQSETFRRLMNYAYEKELHDVEQRWLLGAGEAFETTVAQEHFKLSEGRKVICLNLDDSDDSYTEHYESNEGRQLFDTKRSFIHEVVHALTHLQDKEENHPRGPVVEYTNIILKEMGHPSPPRMVYIFNK”, the “soluble on expression in E. coli” value is recorded as “not soluble”.

Consider “MIIYFIGTGGSEGIPVHLCDCNTCNEARKFRFAQRRPSTLAVIGENGEVILFDVGTDIREFLNVPLDAIFLTHWHHDHIYGLYKLRWIARETNLYAPEGHADALILQDPKNLRPKIIKAGEKIRIGDIKVTSVKLNHQIETLGYIIEEDGKRVAILYDTKGLPPETREYLEDISPLRVAIVDATYPPGFVDPYHNNVNEAVEMSIDIAERIVLSHISHKNLPFLKLVNYTRKMWGGKVLVAYDGMVFYV”, for which the “soluble on expression in E. coli” value is reported as “soluble”.
